Assays:
[1] = molecular target: Monomer-enriched preparation of the Aβ1-42 peptide (W. M. Keck Facility peptide); test: ELISA, coated 2.2 µM; Ab 1:2 (start 0.5 µg/ml); mean of 3
[2] = molecular target: Oligomer-enriched preparation of the Aβ1-42 peptide (W. M. Keck Facility peptide); test: as above
[3] = molecular target: Monomer-enriched preparation of the Aβ1-42 peptide (W. M. Keck Facility peptide); test: ELISA, coated 2.2 µM; Ab 1:4 (start 0.5 µg/ml); mean of 3
[4] = molecular target: Oligomer-enriched preparation of the Aβ1-42 peptide (W. M. Keck Facility peptide); test: ELISA, coated 2.2 µM; Ab 1:8 (start 0.5 µg/ml); mean of 3
[5] = molecular target: Monomer-enriched preparation of the Aβ1-42 peptide (W. M. Keck Facility peptide); test: ELISA, coated 2.2 µM; Ab 1:16 (start 0.5 µg/ml); mean of 3
[6] = molecular target: Monomer-enriched preparation of the Aβ1-42 peptide (W. M. Keck Facility peptide); test: ELISA, coated 2.2 µM; Ab 1:32 (start 0.5 µg/ml); mean of 3
[7] = molecular target: Oligomer-enriched preparation of the Aβ1-42 peptide (W. M. Keck Facility peptide); test: as above
[8] = molecular target: Oligomer-enriched preparation of the Aβ1-42 peptide (W. M. Keck Facility peptide); test: ELISA, coated 2.2 µM; Ab 1:64 (start 0.5 µg/ml); mean of 3
[9] = molecular target: Oligomer-enriched preparation of the Aβ1-42 peptide (W. M. Keck Facility peptide); test: ELISA, coated 2.2 µM; Ab 1:128 (start 0.5 µg/ml); mean of 3

Monomer-enriched preparation of the Aβ1-42 peptide (W. M. Keck Facility peptide), sequence (peptide, as listed by the source): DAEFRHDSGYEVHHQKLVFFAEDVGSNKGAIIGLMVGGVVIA
Oligomer-enriched preparation of the Aβ1-42 peptide (W. M. Keck Facility peptide), sequence (peptide, as listed by the source): as above

O.D. [1]: 3.59 O.D. | O.D. [2]: 3.59 O.D. | O.D. [3]: 3.27 O.D. | O.D. [4]: 2.98 O.D. | O.D. [5]: 1.98 O.D. | O.D. [6]: 1.36 O.D. | O.D. [7]: 1.32 O.D. | O.D. [8]: 0.92 O.D. | O.D. [9]: 0.63 O.D.
Substance: 6E10 control antibody
